Results reported in publication doi:10.1101/2024.07.03.601791.

Target: Kapβ2 Δloop (human) (UniProt Q92973)
Experiment: AUC

Kapβ2 Δloop (human), sequence (Q92973 9-898, stated change not applied): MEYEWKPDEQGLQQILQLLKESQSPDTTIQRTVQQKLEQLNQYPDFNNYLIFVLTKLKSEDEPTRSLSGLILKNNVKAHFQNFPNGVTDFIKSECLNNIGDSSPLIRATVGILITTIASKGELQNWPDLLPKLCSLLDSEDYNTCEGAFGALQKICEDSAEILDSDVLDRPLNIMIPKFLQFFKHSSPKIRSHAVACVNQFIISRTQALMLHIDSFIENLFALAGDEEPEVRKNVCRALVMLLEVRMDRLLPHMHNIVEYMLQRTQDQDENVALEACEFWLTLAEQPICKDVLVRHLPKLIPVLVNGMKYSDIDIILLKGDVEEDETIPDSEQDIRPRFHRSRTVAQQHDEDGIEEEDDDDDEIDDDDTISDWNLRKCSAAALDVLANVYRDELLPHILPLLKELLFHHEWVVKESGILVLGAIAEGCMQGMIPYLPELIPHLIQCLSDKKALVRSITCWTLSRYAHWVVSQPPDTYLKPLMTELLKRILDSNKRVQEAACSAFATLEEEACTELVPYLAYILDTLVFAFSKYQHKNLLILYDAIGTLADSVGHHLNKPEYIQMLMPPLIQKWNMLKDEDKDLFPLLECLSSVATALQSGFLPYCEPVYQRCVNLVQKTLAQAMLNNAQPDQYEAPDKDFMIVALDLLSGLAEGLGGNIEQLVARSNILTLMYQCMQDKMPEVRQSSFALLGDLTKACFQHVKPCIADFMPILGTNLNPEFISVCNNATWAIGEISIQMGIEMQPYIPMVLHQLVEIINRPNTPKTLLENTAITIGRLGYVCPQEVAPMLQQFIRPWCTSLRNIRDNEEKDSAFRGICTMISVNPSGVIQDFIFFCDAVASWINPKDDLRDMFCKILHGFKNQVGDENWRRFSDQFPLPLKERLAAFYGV

stoichiometry N: 1
Binder: PRPRPRPRPRPRPRPRPRPRPRPRPRPRPRPRPRPR [maltose-binding protein (MBP)-PR18]
